Earlier results as cited in article PMC11133458.

Molecular target: Glu14 (UniProt position 14, GAILAEVIGTT)
Conditions: TPP-bound EmrE (Glu14 of monomer A deprotonated)

Q: With “EmrE (multidrug efflux transporter, small multidrug resistance family) (Escherichia coli)” as the substance, how does the pKa read?
A: The pKa was 6.8.
